Target: the molecule itself
Assay: crystal structure

B1: Shethna Protein II (FeSII) from Azotobacter vinelandii (natural protein, UniProt Q44501 1-122, looked up)
chain: MATIYFSSPLMPHNKKVQAVAGKRSTLLGVAQENGVKIPFECQDGNCGSCLVKITHLDGERIKGMLLTDKERNVLKSVGKLPKSEEERAAVRDLPPTYRLACQTIVTDEDLLVEFTGEPGGA
- binding result: binds

Source: paper doi:10.1101/2024.01.30.575082 (bioRxiv, 2024)
